From PMC4426023 (Cell reports, 2015) come the findings set out here.

A value given as a limit tells only on which side of the number the result lay.

For assay [1], the target named is DOT1L Site 1 peptide, fluorescently tagged (UniProt Q8TEK3). Description: fluorescence polarisation.
For assay [2], the target named is DOT1L Site 2 peptide, fluorescently tagged (UniProt Q8TEK3). The experiment in a line: fluorescence polarisation.
Assay [3] has as its target T1, DOT1L repeat motif (Sites 2 and 3, aa. 863–900) (UniProt Q8TEK3 863-900).
T1 chain (looked up): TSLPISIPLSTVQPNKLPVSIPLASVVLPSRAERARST
The experiment in a line: SEC.

Sequence of DOT1L Site 1 peptide, fluorescently tagged (Q8TEK3 628-653): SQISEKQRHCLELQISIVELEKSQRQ

MBP-AF9 AHD (WT) (domain or fragment): the Kd in assay [1] is greater than 2000 nM. This molecule had a fold weaker affinity than DOT1L (Site 3) in assay [2] of 17 fold.

B1: AF9 ANC1 homology domain (aa. 499–568) (domain or fragment, UniProt P42568 499-568, looked up)
chain: CDKAYLDELVELHRRLMTLRERHILQQIVNLIEETGHFHITNTTFDFDLCSLDKTTVRKLQSYLETSGTS
As to B1, in assay [3], the “stoichiometry N” value is 2.
